Among the data in publication PMC6688928 are percent crosslinked in tetramers, stoichiometry N and percent formation of disulfide-crosslinked tetramers values, retold here.

In assay [1] the target is FLAG-NaVAb KAV/E96C/Q150C (Hi5 cells, crosslinking assay) (UniProt A8EVM5). In words: cross-linking.
Assay [2] deals with FLAG-NaVAb G94C/Q150C (Hi5 cells, crosslinking assay) (UniProt A8EVM5). In words: cross-linking.
Assay [3] deals with FLAG-NaVAb KAV/G94C/Q150C (Hi5 cells, crosslinking assay) (UniProt A8EVM5). Nature of the assay: cross-linking.
The target in assay [4] is FLAG-NaVAb V100C/Q150C (Hi5 cells, crosslinking assay) (UniProt A8EVM5). In words: cross-linking.
For assay [5], the target named is NaVAb/V100C/Q150C Δ28, disulfide-crosslinked. In words: cross-linking.
Assay [6] addresses MBP-NaVAb/KAV/G94C/Q150C, disulfide-crosslinked (UniProt A8EVM5). Nature of the assay: cryo-EM structure.
Assay [7] has the same target. Nature of the assay: cross-linking.
Assay [8] has as its target FLAG-NaVAb E96C/Q150C (Hi5 cells, crosslinking assay) (UniProt A8EVM5). Nature of the assay: cross-linking.

As a reminder, the stoichiometry N is the number of molecules, sites or subunits per partner or assembly. In assay [1], “FLAG-NaVAb KAV/E96C/Q150C (Hi5 cells, crosslinking assay) (from UniProt A8EVM5 1-267) (natural protein)” showed a percent crosslinked in tetramers of 80% and a stoichiometry N of 4.
In the case of “FLAG-NaVAb G94C/Q150C (Hi5 cells, crosslinking assay) (from UniProt A8EVM5 1-267) (natural protein)”, in assay [2], the percent formation of disulfide-crosslinked tetramers was found to be 20% and the stoichiometry N worked out at 4.
As for “FLAG-NaVAb KAV/G94C/Q150C (Hi5 cells, crosslinking assay) (from UniProt A8EVM5 1-267) (natural protein)”, in assay [3], the percent crosslinked in tetramers turned out to be 80% and the stoichiometry N was found to be 4.
With “FLAG-NaVAb V100C/Q150C (Hi5 cells, crosslinking assay) (from UniProt A8EVM5 1-267) (natural protein)”, in assay [4], the percent formation of disulfide-crosslinked tetramers is 80% and the stoichiometry N came to 4.
In assay [5], “NaVAb/V100C/Q150C Δ28, disulfide-crosslinked (domain or fragment)” had a stoichiometry N of 4.
Turning to “MBP-NaVAb/KAV/G94C/Q150C, disulfide-crosslinked (from UniProt A8EVM5 5-267) (natural protein)”, the stoichiometry N in assay [6] and in assay [7] was 4 in each case.
In assay [8], “FLAG-NaVAb E96C/Q150C (Hi5 cells, crosslinking assay) (from UniProt A8EVM5 1-267) (natural protein)” had a percent formation of disulfide-crosslinked tetramers of 40% and a stoichiometry N of 4.
